Measurements reported in article PMC7618375, “Structure and Methyl-lysine Binding Selectivity of the HUSH Complex Subunit MPP8” (Journal of molecular biology, 2024).

target: MPP8 chromodomain (CD, residues 55-116) (human) (UniProt Q99549); assay: ITC; 750 uM peptide in the syringe titrated into 50 uM MPP8 CD in the cell; 50 mM HEPES pH 7.4, 0.1 M NaCl, 0.5 mM TCEP, 25 °C; single-site model; details: not given

Row | Substance | Kd [nM]
1 | Histone H3 peptide trimethylated at lysine 27 | > 50000
2 | SETDB1 peptide trimethylated at K1170 | 1550
3 | SETDB1 peptide trimethylated at K1178 | > 50000

Results, then the substance that gave them:

Row | Kd [nM] | Substance
4 | 193 | ATF7IP N-terminal tail peptide trimethylated at lysine 16
5 | 1310 | G9a peptide trimethylated at K185
6 | 337 | GLP peptide residues 199-211 with lysine 205 trimethylated (from UniProt Q9H9B1 199-211)
7 | 769 | Histone H3 peptide trimethylated at lysine 9

target: Dnmt3a (Homo sapiens) (UniProt Q9Y6K1); assay: not given; details: cited from earlier work

Row | Substance | Kd [nM]
8 | MPP8 chromodomain (from UniProt Q99549) | 12000
